Experimental findings from US20150315296A1 (Hoffmann-La Roche, published 2015) are described below.

The labels stand for the following.
T1: human VEGFA-121-His (human, UniProt P15692-9 27-147)
T1 construct: also called VEFGA-121-His; not shown: His tag
T1 sequence (looked up): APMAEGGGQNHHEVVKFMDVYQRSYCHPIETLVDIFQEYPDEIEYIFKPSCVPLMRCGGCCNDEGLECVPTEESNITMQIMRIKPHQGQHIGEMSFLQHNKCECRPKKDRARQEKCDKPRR

T2: human Ang-2-RBD-Fc (human, UniProt O15123 275-496, limits assumed)
T2 construct: domain: RBD; not shown: Fc part
T2 sequence (looked up): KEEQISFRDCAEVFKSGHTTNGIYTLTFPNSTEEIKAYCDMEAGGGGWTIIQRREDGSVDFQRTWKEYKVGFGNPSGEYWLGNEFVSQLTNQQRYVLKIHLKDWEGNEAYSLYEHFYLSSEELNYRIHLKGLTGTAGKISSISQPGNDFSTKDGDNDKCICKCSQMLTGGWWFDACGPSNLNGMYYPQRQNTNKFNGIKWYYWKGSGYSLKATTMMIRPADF

B1: xFab-Fab<ANG2-VEGF>-uncharged (Ang2VEGF-0452) (bispecific antibody)
light 1: QPGLTQPPSVSVAPGQTARITCGGNNIGSKSVHWYQQKPGQAPVLVVYDDSDRPSGIPERFSGSNSGNTATLTISRVEAGDEADYYCQVWDSSSDHYVFGTGTKVTVLRTVAAPSVFIFPPSDEQLKSGTASVVCLLNNFYPREAKVQWKVDNALQSGNSQESVTEQDSKDSTYSLSSTLTLSKADYEKHKVYACEVTHQGLSSPVTKSFNRGEC
heavy: not shown
light 2: EVQLVESGGGLVQPGGSLRLSCAASGYTFTNYGMNWVRQAPGKGLEWVGWINTYTGEPTYAADFKRRFTFSLDTSKSTAYLQMNSLRAEDTAVYYCAKYPHYYGSSHWYFDVWGQGTLVTVSSASVAAPSVFIFPPSDEQLKSGTASVVCLLNNFYPREAKVQWKVDNALQSGNSQESVTEQDSKDSTYSLSSTLTLSKADYEKHKVYACEVTHQGLSSPVTKSFNRGEC
notes: Bivalent, Fc-free CrossFab(VH-VL)-Fab format
B2: xFab2-Fab<ANG2-VEGF>-uncharged (Ang2VEGF-0453) (bispecific antibody)
light 1: B1 light 1
heavy: not shown
light 2: B1 light 2
notes: Trivalent, Fc-free (CrossFab VH-VL)2-Fab format
B3: xFab-Fab<ANG2-VEGF>-charged (Ang2VEGF-0447) (bispecific antibody)
light 1: B1 light 1 with E124K, Q125R
heavy: not shown
light 2: B1 light 2
notes: as for B1
B4: xFab2-Fab<ANG2-VEGF>-charged (Ang2VEGF-0448) (bispecific antibody)
light 1: B1 light 1 with E124K, Q125R
heavy: not shown
light 2: B1 light 2
notes: as for B2

Residue numbers refer to the chain shown, from its start.

One assay deals with T1, human VEGFA-121-His. Put plainly: SPR (Biacore T200), VEGFA-121-His amine-coupled on C1 chip, antibody in solution, 25 C, 1:1 Langmuir. The method, then:
(§1) Binding of indicated antibodies to human VEGFA-121 was investigated by surface plasmon resonance using a BIACORE® T200 instrument (GE Healthcare). Aim for 50 RU of VEFGA-121-His were coupled on a Series S C1 chip (GE Healthcare BR-1005-35) at pH 5.0 by using an amine coupling kit supplied by the GE Healthcare. HBS-N(10 mM HEPES, 150 mM NaCl pH 7.4, GE Healthcare) was used as running buffer during the immobilization procedure. For the following kinetic characterization, sample and running buffer was PBS-T (10 mM phosphate buffered saline including 0.05% Tween20) at pH 7.4. The flow cell was set to 25° C.—and the sample block set to 12° C.—and primed with running buffer twice prior to kinetic characterization.
The association was measured by injection the indicated antibody in various concentrations in solution for 180 sec at a flow of 30 μl/min starting with 100 nM in 1:3 serial dilutions. The dissociation phase was monitored for up to 300 sec and triggered by switching from the sample solution to running buffer. The surface was regenerated by 30 sec washing with a 0.85% H₃PO₄ (phosphoric acid) solution at a flow rate of 30 μl/min Bulk refractive index differences were corrected by subtracting the response obtained from a anti His antibody surface. Blank injections are also subtracted (=double referencing). For calculation of KD and other kinetic parameters the Langmuir 1:1 model was used.
A general note: SPR reads the build-up and loss of mass on a sensor chip optically.
In the case of B1, the Kd amounted to 0.35 nM.

Consider B2, for which the Kd stood at 0.22 nM.

B3 registered a Kd of 0.36 nM.

As to B4, the Kd stood at 0.18 nM.

In a further assay the target is T2, human Ang-2-RBD-Fc. Put plainly: SPR (Biacore T200), antibody captured by anti-human F(ab')2, Ang2-RBD-Fc in solution, 25 C, apparent KD, 1:1 Langmuir. The method, then: as §1, with “Ang-2-RBD-Fc” for “VEGFA-121”, “Around 8000 (RU)” for “Aim for 50 RU”, “goat anti human F(ab′)₂ (10 μg/ml anti human F(ab)′₂; Order Code: 28958325; GE Healthcare Bio-Sciences AB, Sweden)” for “VEFGA-121-His”, “CM5” for “C1”, “BR-1005-30)” for “BR-1005-35)”
The bispecific antibody was captured by injecting a 5 nM solution for 25 sec at a flow of 5 μl/min. The association was measured by injection of human Ang2-RBD-Fc in various concentrations in solution for 120 sec at a flow of 30 μl/min starting with 100 nM in 1:3 serial dilutions. The dissociation phase was monitored for up to 180 sec and triggered by switching from the sample solution to running buffer. The surface was regenerated by 60 sec washing with a Glycine pH 2.1 solution at a flow rate of 30 μl/min Bulk refractive index differences were corrected by subtracting the response obtained from a goat anti human F(ab′)₂ surface. Blank injections are also subtracted (=double referencing). For calculation of apparent KD and other kinetic parameters the Langmuir 1:1 model was used.
On to B1, for which the Kd stood at 3 nM.

B2: the Kd was 5 nM.

As to B3, the Kd worked out at 3 nM.

B4: the Kd was determined as 4 nM.
